Experimental data published in PMC7403387.

Biological target: Neural cell adhesion molecule (NCAM1), endogenous in Vero cells (African green monkey (endogenous in Vero))

“Zika virus (ZIKV) E protein on the surface of purified mature virions, labelled with the maleimide-diazirine-biotin probe (natural protein)” gave a decrease in ZIKV attachment to Vero cells (RT-qPCR) with NCAM1 ECD protein or anti-NCAM1 antibody of 40%.
